From publication PMC4939597, “Mechanism for insulin-like peptide 5 distinguishing the homologous relaxin family peptide receptor 3 and 4” (Scientific Reports, 2016)
No end group written: not given here.

Experiments:
[1] = target: T1, human RXFP3 (Homo sapiens, UniProt Q9NSD7); assay: Receptor activation assay, CRE-controlled NanoLuc reporter; assay type: cell-based; conditions: for activation potency towards RXFP3, result in words: CRE-controlled NanoLuc reporter, HEK293T cells, human RXFP3; for pEC50 RXFP3: HEK293T cells cotransfected with human RXFP3 and CRE-controlled NanoLuc reporter, 1.0 μM forskolin, 37 °C, 4 h, mean ± SE, n = 3, N.D., not detectable
T1 construct: expressed in transfected cells; host or cells: HEK293T
T1 sequence (Q9NSD7 1-469): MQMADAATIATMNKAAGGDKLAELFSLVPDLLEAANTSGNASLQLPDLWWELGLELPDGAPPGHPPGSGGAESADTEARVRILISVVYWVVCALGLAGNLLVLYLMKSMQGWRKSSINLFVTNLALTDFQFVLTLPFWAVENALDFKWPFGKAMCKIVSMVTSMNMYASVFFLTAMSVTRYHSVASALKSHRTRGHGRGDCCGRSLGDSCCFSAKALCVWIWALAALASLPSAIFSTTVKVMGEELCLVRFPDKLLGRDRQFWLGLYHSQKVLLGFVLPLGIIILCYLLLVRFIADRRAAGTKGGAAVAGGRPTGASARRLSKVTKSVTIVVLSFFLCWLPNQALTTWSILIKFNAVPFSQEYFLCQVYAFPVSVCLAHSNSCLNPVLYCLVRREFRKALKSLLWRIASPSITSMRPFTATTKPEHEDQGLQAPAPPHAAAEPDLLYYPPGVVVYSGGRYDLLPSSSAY

[2] = target: T2, human RXFP4 (Homo sapiens, UniProt Q8TDU9); assay: as above; assay type: cell-based; conditions: for pEC50 RXFP4: HEK293T cells cotransfected with human RXFP4 and CRE-controlled NanoLuc reporter, 1.0 μM forskolin, 37 °C, 4 h, mean ± SE, n = 3, SEM
T2 construct: expressed in transfected cells; host or cells: HEK293T
T2 sequence (Q8TDU9 whole entry): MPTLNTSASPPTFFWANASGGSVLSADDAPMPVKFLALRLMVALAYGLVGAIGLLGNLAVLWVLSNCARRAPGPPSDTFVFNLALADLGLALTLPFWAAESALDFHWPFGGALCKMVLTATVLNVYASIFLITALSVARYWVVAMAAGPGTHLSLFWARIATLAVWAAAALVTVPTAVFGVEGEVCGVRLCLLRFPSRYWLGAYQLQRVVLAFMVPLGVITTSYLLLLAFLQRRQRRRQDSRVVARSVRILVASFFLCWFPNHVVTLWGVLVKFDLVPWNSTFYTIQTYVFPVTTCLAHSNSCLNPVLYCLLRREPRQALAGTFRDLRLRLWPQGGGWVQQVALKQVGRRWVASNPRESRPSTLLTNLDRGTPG

[3] = target: T1, human RXFP3; assay: Receptor binding assay, competition with NanoLuc-conjugated R3/I5 tracer; conditions: for pIC50 RXFP3: HEK293T cells transiently overexpressing human RXFP3, 0.5 nM NanoLuc-conjugated R3/I5 tracer, 21 °C, 2 h, mean ± SE, n = 3, SEM
Summary of the method: (§1)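 HEK293T cells transiently expressing human RXFP3 or RXFP4 were incubated with 0.5 nM NanoLuc-conjugated R3/I5 tracer plus competitor in serum-free DMEM with 1% BSA, 2 h at 21 °C. Nonspecific binding used 1.0 μM human relaxin-3. After washing and lysis, bioluminescence was read and curves fitted sigmoidally (n = 3).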

[4] = target: T2, human RXFP4; assay: as above; conditions: for pIC50 RXFP4: HEK293T cells transiently overexpressing human RXFP4, 0.5 nM NanoLuc-conjugated R3/I5 tracer, 21 °C, 2 h, mean ± SE, n = 3, SEM; for fold lower binding potency towards RXFP4 compared with wild-type INSL5: lower than wild-type INSL5
Summary of the method: as §1

“[I(B18)T]INSL5: recombinant mature two-chain INSL5 mutant (Insulin-like peptide INSL5 B … KESVRLCGLEYIRTVIYTCASSRW; Insulin-like peptide INSL5 A … QDLQTLCCTDGCSMTDLSALC; ends and bridges not checked; cysteine pairing not given here; UniProt Q9Y5Q6 23-46; Q9Y5Q6 115-135, looked up, variant I18T)” was tested, and the “activation potency towards RXFP3, result in words” value [1] was “no detectable activation potency”, the “pEC50 RXFP4” value [2] was 9.31 ± 0.08 and the “pIC50 RXFP3” value [3] was 7.07 ± 0.04. For the same substance, the “pIC50 RXFP4” value [4] was 7.43 ± 0.05.

With “[L(B9)R,Y(B17)F]INSL5: recombinant mature two-chain INSL5 mutant (Insulin-like peptide INSL5 B … KESVRLCGREYIRTVIFICASSRW; Insulin-like peptide INSL5 A … QDLQTLCCTDGCSMTDLSALC; ends and bridges not checked; cysteine pairing not given here; UniProt Q9Y5Q6 23-46; Q9Y5Q6 115-135, looked up, variant L9R Y17F)” the “pEC50 RXFP3” value [1] was less than 6, the “fold lower activation potency towards RXFP3 than its parent mutants” value ([1]; lower than parent mutants [L(B9)R]INSL5 and [Y(B17)F]INSL5) was ~ 10 fold and the “pEC50 RXFP4” value [2] was 9.20 ± 0.03. For the same substance, the “pIC50 RXFP3” value [3] was 8.17 ± 0.04, the “pIC50 RXFP4” value [4] was 7.33 ± 0.03 and the “fold lower binding potency towards RXFP4 compared with wild-type INSL5” value [4] was ~ 3 fold.

With “[L(B9)R]INSL5: recombinant mature two-chain INSL5 mutant (Insulin-like peptide INSL5 B … KESVRLCGREYIRTVIYICASSRW; Insulin-like peptide INSL5 A … QDLQTLCCTDGCSMTDLSALC; ends and bridges not checked; cysteine pairing not given here; UniProt Q9Y5Q6 23-46; Q9Y5Q6 115-135, looked up, variant L9R)” the “pEC50 RXFP3” value ([1]; SEM) was 7.21 ± 0.04, the “pEC50 RXFP4” value [2] was 9.87 ± 0.04 and the “pIC50 RXFP3” value [3] was 7.87 ± 0.04. The “fold higher binding potency towards RXFP3 than wild-type INSL5” value ([3]; higher than wild-type INSL5) was ~ 4 fold and the “pIC50 RXFP4” value [4] was 7.85 ± 0.03.

With “[T(B14)A]INSL5: recombinant mature two-chain INSL5 mutant (Insulin-like peptide INSL5 B … KESVRLCGLEYIRAVIYICASSRW; Insulin-like peptide INSL5 A … QDLQTLCCTDGCSMTDLSALC; ends and bridges not checked; cysteine pairing not given here; UniProt Q9Y5Q6 23-46; Q9Y5Q6 115-135, looked up, variant T14A)” the “activation potency towards RXFP3, result in words” value [1] was “no detectable activation potency”, the “pEC50 RXFP4” value [2] was 9.05 ± 0.04 and the “pIC50 RXFP3” value [3] was 7.06 ± 0.03. For the same substance, the “pIC50 RXFP4” value [4] was 7.57 ± 0.05.

For “[Y(B17)F]INSL5: recombinant mature two-chain INSL5 mutant (Insulin-like peptide INSL5 B … KESVRLCGLEYIRTVIFICASSRW; Insulin-like peptide INSL5 A … QDLQTLCCTDGCSMTDLSALC; ends and bridges not checked; cysteine pairing not given here; UniProt Q9Y5Q6 23-46; Q9Y5Q6 115-135, looked up, variant Y17F)”, the “pEC50 RXFP3” value ([1]; SEM) was 6.83 ± 0.08, the “pEC50 RXFP4” value [2] was 8.40 ± 0.09 and the “fold lower activation potency towards RXFP4 compared with INSL5” value ([2]; lower than wild-type INSL5) was ~ 9 fold. For the same substance, the “pIC50 RXFP3” value [3] was 6.77 ± 0.05, the “fold lower binding potency towards RXFP3 compared with wild-type INSL5” value ([3]; lower than wild-type INSL5) was ~ 3 fold and the “pIC50 RXFP4” value [4] was 7.23 ± 0.03. The “fold lower binding potency towards RXFP4 compared with wild-type INSL5” value [4] was ~ 3 fold.

For “insulin-like peptide 5 (Insulin-like peptide INSL5 B … KESVRLCGLEYIRTVIYICASSRW; Insulin-like peptide INSL5 A … QDLQTLCCTDGCSMTDLSALC; UniProt Q9Y5Q6 23-46; Q9Y5Q6 115-135, looked up) [recombinant mature two-chain human INSL5, cognate agonist of RXFP4, reference compound]”, the “activation potency towards RXFP3, result in words” value [1] was “no detectable activation potency”, the “pEC50 RXFP4” value [2] was 9.36 ± 0.06 and the “pIC50 RXFP3” value [3] was 7.26 ± 0.05. For the same substance, the “fold lower binding affinity for RXFP3 than relaxin-3” value ([3]; lower than relaxin-3) was ~ 27 fold and the “pIC50 RXFP4” value [4] was 7.75 ± 0.02.
